Experimental data as given in paper PMC3633659.

Assays:
[1] = biological target: Mamu-A2*01:02 (Chinese rhesus macaque | not stated); assay: radioligand binding
[2] = biological target: Mamu-B*010:01 (Chinese rhesus macaque | not stated); assay: radioligand binding

| Binder | IC50 [1] | IC50 [2] |
| --- | --- | --- |
| DRLALLANL [… (C. trachomatis recC exodeoxyribonuclease-V g chain)] | 19.1 µM | > 20 µM |
| KRVVINKDT [… (Y. enterocolitica Hsp60)] | > 20 µM | > 20 µM |
| SRHHAFCFR [… (Aggrecan precursor p667)] | 2.06 µM | > 20 µM |
| RRYQKSTEL [… (E. coli derived)] | 6.65 µM | 0.291 µM |
| MRDHTITLL [… (C. trachomatis NADH-ubiquinone-oxidoreductase-a-chain)] | > 20 µM | 0.008 µM |
| NRAKQVIKL [… (C. trachomatis protease ATPase)] | > 20 µM | 0.106 µM |
| EREQTLNQL [… (C. trachomatis ATP-dependent zinc protein)] | 13.2 µM | > 20 µM |
